Among the data in paper PMC11830813 are SARS-CoV-2 uptake by human monocytes (N protein RNA by RT-qPCR, 24 hpi) after pretreatment with recombinant human CypA and CypB together (each 10 µg/ml) as a decoy; CD147 endogenous on the monocytes (fold decrease) values, retold here.

The target of this assay is Fc-tagged CD147 (UniProt P35613).
Chain of UniProt P35613 (P35613 138-325): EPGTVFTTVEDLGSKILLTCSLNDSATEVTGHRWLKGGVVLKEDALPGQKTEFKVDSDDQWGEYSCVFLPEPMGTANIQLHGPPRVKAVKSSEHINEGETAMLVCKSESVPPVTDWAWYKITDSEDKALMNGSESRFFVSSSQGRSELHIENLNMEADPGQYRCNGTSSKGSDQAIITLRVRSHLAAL

“recombinant human cyclophilin B (from UniProt P23284 34-216) (natural protein)”: the SARS-CoV-2 uptake by human monocytes (N protein RNA by RT-qPCR, 24 hpi) after pretreatment with recombinant human CypA and CypB together (each 10 µg/ml) as a decoy; CD147 endogenous on the monocytes (fold decrease) is 2.7.
